Assay results taken from patent EP4471063A1 (Medilink Therapeutics (Suzhou) Co., Ltd., dated 2023).

Key:
[1] = molecular target: T1, human Her2-His (human, UniProt P04626 23-652); test: ELISA, coated Her2-his, antibody 200 ng/mL
T1 construct: Bought protein

[2] = molecular target: T2, human Her3 on tumor cells (human, UniProt P21860 20-1342); test: flow cytometry, A549-human Her3 tumor cells
T2 construct: whole, on cells; also called A549-human Her3 cells; T47D cells

[3] = molecular target: T1, human Her2-His; test: ELISA, coated Her2-his, antibody 40 ng/mL
[4] = molecular target: T2, human Her3 on tumor cells; test: flow cytometry, T47D tumor cells
[5] = molecular target: T3, human Her3-his (human, UniProt P21860 20-643); test: ELISA, coated Her3-his, antibody 1000 ng/mL
T3 construct: Construct encodes positions 1-643 with its own leader; Expressed in HEK293F, purified on a Ni column; also called human Her3 protein

[6] = molecular target: T2, human Her3 on tumor cells; test: cell-based or functional assay
[7] = molecular target: T4, human EGFR-His (human, UniProt P00533 25-645); test: ELISA, coated EGFR-his, antibody 200 ng/mL
T4 construct: Bought protein

[8] = molecular target: T5, monkey Her3-his (monkey); test: ELISA, coated monkey Her3-his, anti-human Fc-HRP
T5 chain: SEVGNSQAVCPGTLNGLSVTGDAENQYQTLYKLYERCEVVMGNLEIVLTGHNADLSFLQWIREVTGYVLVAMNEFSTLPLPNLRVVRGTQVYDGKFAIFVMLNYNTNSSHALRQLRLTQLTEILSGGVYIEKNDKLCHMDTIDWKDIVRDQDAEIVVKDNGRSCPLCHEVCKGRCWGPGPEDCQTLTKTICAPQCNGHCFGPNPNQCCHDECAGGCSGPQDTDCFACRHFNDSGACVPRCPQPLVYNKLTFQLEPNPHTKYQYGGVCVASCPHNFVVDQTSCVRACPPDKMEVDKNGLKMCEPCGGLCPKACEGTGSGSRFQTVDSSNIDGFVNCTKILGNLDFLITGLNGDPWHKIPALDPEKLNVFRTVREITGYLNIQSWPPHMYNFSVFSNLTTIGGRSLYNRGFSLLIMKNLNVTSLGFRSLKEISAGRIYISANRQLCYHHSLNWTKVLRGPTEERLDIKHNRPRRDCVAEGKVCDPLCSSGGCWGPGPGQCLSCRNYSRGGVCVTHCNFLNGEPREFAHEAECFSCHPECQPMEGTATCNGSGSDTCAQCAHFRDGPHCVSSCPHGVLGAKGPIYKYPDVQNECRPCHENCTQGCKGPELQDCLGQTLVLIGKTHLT

[9] = molecular target: T6, human Her4-His (human, UniProt Q15303 26-649, limits assumed); test: ELISA, coated human Her4-His
T6 construct: Bought protein
T6 sequence (looked up): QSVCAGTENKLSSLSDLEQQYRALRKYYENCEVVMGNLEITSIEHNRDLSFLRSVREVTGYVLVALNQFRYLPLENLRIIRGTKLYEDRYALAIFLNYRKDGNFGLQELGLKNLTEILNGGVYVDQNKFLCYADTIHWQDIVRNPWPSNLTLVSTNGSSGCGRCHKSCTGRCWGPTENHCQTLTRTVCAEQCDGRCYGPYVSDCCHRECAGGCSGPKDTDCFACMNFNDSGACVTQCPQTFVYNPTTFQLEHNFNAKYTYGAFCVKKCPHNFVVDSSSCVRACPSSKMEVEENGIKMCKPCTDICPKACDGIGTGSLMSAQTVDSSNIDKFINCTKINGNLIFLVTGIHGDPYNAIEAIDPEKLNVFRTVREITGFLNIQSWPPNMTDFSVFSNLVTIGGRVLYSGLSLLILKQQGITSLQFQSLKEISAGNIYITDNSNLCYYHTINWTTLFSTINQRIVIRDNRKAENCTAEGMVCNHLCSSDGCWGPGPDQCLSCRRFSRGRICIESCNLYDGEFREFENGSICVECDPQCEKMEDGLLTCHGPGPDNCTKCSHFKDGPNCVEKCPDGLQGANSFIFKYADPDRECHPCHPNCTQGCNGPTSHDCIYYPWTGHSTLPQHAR

[10] = molecular target: T1, human Her2-His; test: ELISA, coated human Her2-His
[11] = molecular target: T3, human Her3-his; test: BLI (Fortibio), antibody on ProteinA sensor, human Her3-His in solution, 1:1 model
[12] = molecular target: T6, human Her4-His; test: ELISA, coated Her4-his, antibody 200 ng/mL
[13] = molecular target: T4, human EGFR-His; test: ELISA, coated human EGFR-His
[14] = molecular target: T1, human Her2-His; test: ELISA, coated Her2-his, antibody 1000 ng/mL
[15] = molecular target: T4, human EGFR-His; test: ELISA, coated EGFR-his, antibody 40 ng/mL
[16] = molecular target: T6, human Her4-His; test: ELISA, coated Her4-his, antibody 40 ng/mL
[17] = molecular target: T4, human EGFR-His; test: ELISA, coated EGFR-his, antibody 1000 ng/mL
[18] = molecular target: T3, human Her3-his; test: ELISA, coated Her3-his, antibody 40 ng/mL
[19] = molecular target: T3, human Her3-his; test: ELISA, coated human Her3-his, anti-human Fc-HRP
[20] = molecular target: T3, human Her3-his; test: ELISA, coated Her3-his, antibody 200 ng/mL
[21] = molecular target: T6, human Her4-His; test: ELISA, coated Her4-his, antibody 1000 ng/mL
[22] = molecular target: T7, rat Her3-his (rat); test: ELISA, coated rat Her3-his, anti-human Fc-HRP
T7 chain: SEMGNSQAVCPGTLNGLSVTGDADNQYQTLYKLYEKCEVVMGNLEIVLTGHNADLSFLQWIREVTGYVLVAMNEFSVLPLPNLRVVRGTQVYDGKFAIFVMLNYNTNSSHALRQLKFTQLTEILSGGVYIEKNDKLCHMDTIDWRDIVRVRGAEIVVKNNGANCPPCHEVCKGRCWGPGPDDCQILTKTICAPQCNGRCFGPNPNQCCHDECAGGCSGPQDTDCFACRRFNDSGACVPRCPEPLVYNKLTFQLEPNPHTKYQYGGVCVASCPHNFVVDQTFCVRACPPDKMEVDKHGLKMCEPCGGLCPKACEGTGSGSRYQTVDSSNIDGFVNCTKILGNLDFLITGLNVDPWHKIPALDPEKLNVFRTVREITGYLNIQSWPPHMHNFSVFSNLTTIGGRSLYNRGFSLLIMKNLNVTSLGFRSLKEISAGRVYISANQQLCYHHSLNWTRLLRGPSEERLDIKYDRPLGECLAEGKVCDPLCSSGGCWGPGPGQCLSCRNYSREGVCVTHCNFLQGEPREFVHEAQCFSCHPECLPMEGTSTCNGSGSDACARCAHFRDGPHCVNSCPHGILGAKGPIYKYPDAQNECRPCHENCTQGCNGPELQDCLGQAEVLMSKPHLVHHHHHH

B1: antibody 202-2-1 (antibody, human IgG1, kappa, V domains shown)
VH: EVQLVESGGGVVQPGRSLRLSCAASGFTFSTYGMHWVRQAPGKGLEWVAVIWYDVSHKYYADSVKGRFTISRDNSKNTLSLQMNSLRAEDTAVYYCARDWGDPDAFDIWGQGTMVTVSS
VL: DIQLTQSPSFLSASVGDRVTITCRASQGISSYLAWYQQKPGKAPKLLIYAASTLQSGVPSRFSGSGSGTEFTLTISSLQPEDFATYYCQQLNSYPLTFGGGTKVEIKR
notes: Fully human IgG1/kappa from a phage scFv library; expressed in HEK293F; also called Her3mAb
In the case of B1, the OD450 [1] is reported as 0.05, the EC50 [2] is reported as 1.15 nM and the “Maximum MFI” value [2] is reported as 63800 MFI. For the same binder, the OD450 [3] was 0.049, the EC50 [4] was 0.08 nM and the OD450 [5] was 0.61. The “IC50 of inhibition of NRG1-induced AKT phosphorylation in MCF-7 cells (cell blotting, anti-Phospho Akt Ser473)” value [6] was 0.243 nM, the OD450 [7] was 0.051 and the EC50 [8] was 0.0159 nM. The binding result [9] was “no binding (tested: 1 µg/mL, 200 ng/mL, and 40 ng/mL)”, the binding result [10] was “no binding (tested: 1 µg/mL, 200 ng/mL, and 40 ng/mL)” and the Kd [11] was 13.1 nM. It also gave a koff [11] of 0.00218 s⁻¹, a kon [11] of 167000 M⁻¹ s⁻¹ and an OD450 [12] of 0.051. For the same binder, the binding result [13] was “no binding (tested: 1 µg/mL, 200 ng/mL, and 40 ng/mL)”, the OD450 [14] was 0.049 and the OD450 [15] was 0.051. The OD450 [16] was 0.05, the OD450 [17] was 0.051 and the OD450 [18] was 0.573. The EC50 [19] was 0.021 nM, the OD450 [20] was 0.695 and the OD450 [21] was 0.051.

B2: antibody 202-3-1 (antibody, human IgG1, kappa, V domains shown)
VH: QVQLQESGPGLVKPSETLSLTCTVSGGSISGYFWSWIRQSPGKGLEWIGYIHYSGRTNYNPSLKSRVTISVDTSKNQFSLKLSSVTAADTAVYYCARETGGSGHWYFDLWGRGNLVTVSS
VL: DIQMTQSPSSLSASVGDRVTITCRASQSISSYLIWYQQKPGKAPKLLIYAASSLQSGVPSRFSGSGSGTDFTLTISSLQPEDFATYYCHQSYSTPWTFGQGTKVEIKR
B2 was tested, and the OD450 [1] was 0.049, the EC50 [2] was 2.04 nM and the “Maximum MFI” value [2] was 55700 MFI. The OD450 [3] was 0.052, the OD450 [5] was 0.333 and the “IC50 of inhibition of NRG1-induced AKT phosphorylation in MCF-7 cells (cell blotting, anti-Phospho Akt Ser473)” value [6] was 1.04 nM. For the same binder, the EC50 [22] was 0.154 nM, the OD450 [7] was 0.05 and the EC50 [8] was 0.0396 nM. The binding result [9] was “no binding (tested: 1 µg/mL, 200 ng/mL, and 40 ng/mL)”, the binding result [10] was “no binding (tested: 1 µg/mL, 200 ng/mL, and 40 ng/mL)” and the Kd [11] was 7.79 nM. For the same binder, the koff [11] was 0.00142 s⁻¹, the kon [11] was 182000 M⁻¹ s⁻¹ and the OD450 [12] was 0.051. For the same binder, the binding result [13] was “no binding (tested: 1 µg/mL, 200 ng/mL, and 40 ng/mL)”, the OD450 [14] was 0.048 and the OD450 [15] was 0.055. For the same binder, the OD450 [16] was 0.049, the OD450 [17] was 0.05 and the OD450 [18] was 0.281. It also gave an EC50 [19] of 0.0606 nM, an OD450 [20] of 0.344 and an OD450 [21] of 0.05.

B3: antibody 202-3-2 (antibody, human IgG1, kappa, V domains shown)
VH: QVQLQESGPGLVKPSETLSLTCTVSGGSISGYFWSWIRQSPGQGLEWIGYIHYSGRTNYNPSLKSRVTISVDTSKNQFSLQLSSVTAADTAVYYCARETGGSGHWYFDLWGRGNLVTVSS
VL: DIQMTQSPSSLSASVGDRVTITCRASQSISSYLIWYQQKPGQAPRLLIYAASSLQSGVPSRFSGSGSGTDFTLTISSLQPEDFATYYCHQSYSTPWTFGQGTKVEIKR
notes: IgG1/kappa
For B3, the OD450 [1] was 0.051, the EC50 [2] was 2.59 nM and the “Maximum MFI” value [2] was 54800 MFI. It also gave an OD450 [3] of 0.05, an OD450 [5] of 0.427 and an EC50 [22] of 0.225 nM. The OD450 [7] was 0.05, the EC50 [8] was 0.0439 nM and the binding result [9] was “no binding (tested: 1 µg/mL, 200 ng/mL, and 40 ng/mL)”. The binding result [10] was “no binding (tested: 1 µg/mL, 200 ng/mL, and 40 ng/mL)”, the Kd [11] was 6.81 nM and the koff [11] was 0.00124 s⁻¹. For the same binder, the kon [11] was 182000 M⁻¹ s⁻¹, the OD450 [12] was 0.051 and the binding result [13] was “no binding (tested: 1 µg/mL, 200 ng/mL, and 40 ng/mL)”. The OD450 [14] was 0.05, the OD450 [15] was 0.051 and the OD450 [16] was 0.051. The OD450 [17] was 0.051, the OD450 [18] was 0.306 and the EC50 [19] was 0.0782 nM. The OD450 [20] was 0.407 and the OD450 [21] was 0.05.
